As usually defined, the Kd is the free concentration of one partner at which half of the binding sites on the other are occupied at equilibrium, for simple one-to-one binding. What is called IC50 is the concentration that gives 50% inhibition. Low values mean higher potency, high ones lower potency.

Here are results for six molecules from patent publication US20040110688A1 (SAINT LOUIS UNIVERSITY, published 2004).

For assay [1], the target named is T1, factor VIIIa (human, UniProt P00451 20-2351).
T1 sequence (looked up): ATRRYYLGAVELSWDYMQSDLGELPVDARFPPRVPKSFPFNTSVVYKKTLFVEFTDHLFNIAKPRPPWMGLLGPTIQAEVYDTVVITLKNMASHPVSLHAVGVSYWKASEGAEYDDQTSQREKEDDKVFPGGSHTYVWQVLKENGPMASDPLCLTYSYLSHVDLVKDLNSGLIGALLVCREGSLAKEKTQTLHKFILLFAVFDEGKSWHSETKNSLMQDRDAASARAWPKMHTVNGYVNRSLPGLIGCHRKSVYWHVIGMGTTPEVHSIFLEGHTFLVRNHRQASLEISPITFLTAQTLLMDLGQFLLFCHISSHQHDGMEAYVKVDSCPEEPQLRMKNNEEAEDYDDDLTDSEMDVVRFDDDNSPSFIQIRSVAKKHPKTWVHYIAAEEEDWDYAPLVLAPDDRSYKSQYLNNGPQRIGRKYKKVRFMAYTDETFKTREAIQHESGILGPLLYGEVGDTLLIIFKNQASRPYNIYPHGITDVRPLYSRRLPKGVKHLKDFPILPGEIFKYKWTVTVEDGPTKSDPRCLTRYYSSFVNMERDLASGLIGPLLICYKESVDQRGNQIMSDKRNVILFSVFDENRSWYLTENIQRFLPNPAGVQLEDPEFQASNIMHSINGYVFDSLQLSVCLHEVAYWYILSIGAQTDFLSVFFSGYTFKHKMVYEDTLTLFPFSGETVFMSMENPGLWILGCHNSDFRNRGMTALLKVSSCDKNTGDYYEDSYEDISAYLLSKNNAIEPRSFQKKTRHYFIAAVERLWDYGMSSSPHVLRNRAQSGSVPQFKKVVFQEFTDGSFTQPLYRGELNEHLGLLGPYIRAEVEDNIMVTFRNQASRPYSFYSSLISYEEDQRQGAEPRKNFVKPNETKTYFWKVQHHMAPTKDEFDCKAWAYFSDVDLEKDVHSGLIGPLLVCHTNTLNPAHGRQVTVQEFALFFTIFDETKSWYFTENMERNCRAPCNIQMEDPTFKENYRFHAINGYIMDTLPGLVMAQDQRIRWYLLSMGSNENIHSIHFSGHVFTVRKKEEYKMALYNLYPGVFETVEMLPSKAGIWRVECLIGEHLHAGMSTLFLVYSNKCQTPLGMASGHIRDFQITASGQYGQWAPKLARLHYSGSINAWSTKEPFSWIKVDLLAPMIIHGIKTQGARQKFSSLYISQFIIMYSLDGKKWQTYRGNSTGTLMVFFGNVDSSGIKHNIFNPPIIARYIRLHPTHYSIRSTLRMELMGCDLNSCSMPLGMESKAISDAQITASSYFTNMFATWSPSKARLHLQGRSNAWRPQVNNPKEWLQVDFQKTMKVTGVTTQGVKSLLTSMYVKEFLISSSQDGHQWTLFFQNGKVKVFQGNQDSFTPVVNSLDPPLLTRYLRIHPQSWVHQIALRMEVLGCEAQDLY
As to the kind of experiment: Kd from the peptide competition assay (factor X activation by IXa with VIIIa and phospholipid).

The target in assay [2] is T1, factor VIIIa. Nature of the assay: peptide competition assay: inhibition of factor X activation by IXa with VIIIa and phospholipid. On the procedure:
Each reaction was incubated for either 30, 60, 90, or 120 seconds and the reaction was stopped by adding 1.5 μL of 0.5 M EDTA and placed on ice. Forty μL of each reaction was added to 100 μL of TBS/BSA in a 96 well microtiter plate and S-2222 (Bz-Ile-Glu(γ-OR)-Gly-Arg-p-nitroanilide) was added to a final concentration of 100 μM.

B1: EGF1 Domain (other, UniProt P00740 93-131, looked up)
chain: DGDQCESNPCLNGGSCKDDINSYECWCPFGFEGKNCELD
notes: domain: EGF1 Domain
Molecule B1 came in with a Kd with factor VIIIa [1] of 6 µM. Moreover, in the assay with factor VIIIa [2], the half-inhibitory concentration (IC50) was found to be 12 µM.

B2: P-4488 SEQ ID NO: 2 (DRAT) (peptide)
peptide: DRAT
B2 returned a dissociation constant Kd in the assay with factor VIIIa [1] of 44.9 µM. For the same molecule, the IC50 in the assay with factor VIIIa [2] worked out at 89.8 µM.

B3: P-4351 SEQ ID NO: 6 (LVDRAT) (peptide)
peptide: LVDRAT
Regarding B3, binding with factor VIIIa [1] was characterised by a dissociation constant (Kd) of 0.35 µM. Moreover, the IC50 in the assay with factor VIIIa [2] was found to be 0.7 µM.

B4: P-4352 SEQ ID NO: 7 (LVYRAT) (peptide)
peptide: LVYRAT
In the assay with factor VIIIa [1], B4 returned a dissociation constant Kd of 6.6 µM. In addition, the IC50 with factor VIIIa [2] amounted to 13.2 µM.

B5: P-4353 SEQ ID NO: 8 (LVDQAT) (peptide)
peptide: LVDQAT
In the case of B5, in the assay with factor VIIIa [1], the affinity, expressed as Kd, was 4.7 µM. Also, the IC50 with factor VIIIa [2] came to 9.3 µM.

B6: P-4354 (TKVSRYVN) (peptide)
peptide: TKVSRYVN
B6 showed a Kd with factor VIIIa [1] of 1 µM.
